How the values were obtained:
CD-1 mice [1] = experiment: Myeloperoxidase histochemistry of intestinal muscularis, post-operative inflammatory ileus; format: in vivo; conditions: 2 mg/kg one hour before surgery; tissue 48 hr after operation; FIG. 6, 7
Description: Myeloperoxidase histochemistry was performed on tissues harvested from the mid-small bowel of the mice 48 hr after the operation.
Briefly, segments of mid-small bowel were collected from the centrifuge tubes described in Example 12. Whole mounts of the muscle layer were prepared by pinning the tissue flat in a Sylgard® lined Petri dish and stretching the tissue to 2 times its length and 1.5 times its width. The mucosa was removed by fine dissection. The muscularis whole mounts were then fixed with 100% ethanol for 1 hr, washed 3 times with PBS, and incubated for 20 min in PBS containing 0.1% hydrogen peroxide and 1 mg/ml Hanker-Yates reagent. Following a second wash with PBS, the whole mounts were mounted on glass slides, cover-slipped, and viewed on an optical microscope. Myeloperoxidase containing leukocytes were counted in 6 to 8 adjacent 200× optical fields of view and the mean cell counts were calculated and recorded.

CD-1 mice [2] = experiment: Gastrointestinal transit in post-operative inflammatory ileus model; format: in vivo; conditions: 2 mg/kg one hour before surgery; transit 48 hr after operation, 45 minutes; FIG. 5
Description: On the day of study, upper gastrointestinal transit was measured using the FITC-dextran method. This method provides both, a measure of gastrointestinal transit and a readout of the pattern of distribution of the test meal along the gastrointestinal tract. Mice were fed a test meal of […] of FITC-dextran solution (5 mg/ml of 70,000 molecular weight dextran conjugated to fluorescein-isothiocyanate in 0.5% methylcellulose/deionized water) administered intragastrically by an 18 gauge curved feeding tube. Following oral administration of the FITC-dextran test meal, mice were returned to their home cages. It was shown that a 30 min test period was the optimum duration for detecting accelerated transit, while a 45 min test period was optimum for detecting delayed transit. Following the appropriate test period, mice were sacrificed by carbon dioxide exposure. The entire gastrointestinal tract from the lower esophageal sphincter to the terminal colon was removed. […] Aliquots of the cleared supernatant were read in duplicate on a 96-well fluorescence plate reader to quantify the magnitude of the fluorescent signal in each segment of bowel. […] The GC is calculated in the lower panel for statistical comparison. […]
All mice received an oral test meal of FITC-dextran 48 hr after the operation. Gastrointestinal transit was determined 45 minutes after oral feeding. […]

B1: SEQ ID NO: 80: human A2G-GLP2 peptide in murine IgG2a scaffold (protein)
chain: HGDGSFSDEMNTILDNLAARDFINWLIQTKITDGSGGGSGTTVTVSAEPRGPTIKPCPPCKCPAPNAAGGPSVFIFPPKIKDVLMISLSPIVTCVVVDVSEDDPDVQISWFVNNVEVHTAQTQTHREDYNSTLRVVSALPIQHQDWMSGKEFKCKVNNKDLPAPIERTISKPKGSVRAPQVYVLPPPEEEMTKKQVTLTCMVTDFMPEDIYVEWTNNGKTELNYKNTEPVLDSDGSYFMYSKLRVEKKNWVERNSYSCSVVHEGLHNHHTTKSFSRTPGK
modifications: Human A2G-GLP2 peptide in murine IgG2a scaffold
- number of MPO-positive leukocytes infiltrating small intestinal muscle layer (CD-1 mice [1]): significantly reduced the number of infiltrating cells
- effect on surgically induced delay in gastrointestinal transit (CD-1 mice [2]): significant improvement in transit

From patent US20070212355A1 (priority 2005, published 2007)
